Test [1] concerns the target IL-18BP (Homo sapiens) (UniProt O95998). The conditions noted are these: cited from earlier work.
Test [2] concerns the target mouse IL-18 binding protein (mouse) (UniProt Q9Z0M9). The test can be described thus: SPR. For orientation: In SPR one partner is held on a chip, and binding of the other changes the refractive index at the surface.

Some results are limits rather than exact numbers.

mouse IL-18 binding protein (mouse), sequence (Q9Z0M9 31-193): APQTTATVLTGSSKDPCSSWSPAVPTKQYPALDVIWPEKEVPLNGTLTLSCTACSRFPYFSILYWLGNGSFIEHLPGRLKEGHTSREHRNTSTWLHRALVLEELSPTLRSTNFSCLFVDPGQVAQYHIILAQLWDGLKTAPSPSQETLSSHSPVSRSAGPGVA
IL-18BP (Homo sapiens), sequence (O95998 31-194): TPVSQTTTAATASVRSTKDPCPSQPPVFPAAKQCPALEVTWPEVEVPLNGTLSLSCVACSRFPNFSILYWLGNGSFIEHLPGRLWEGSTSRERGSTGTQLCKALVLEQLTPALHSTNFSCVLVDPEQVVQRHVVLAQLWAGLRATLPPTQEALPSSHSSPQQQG
IL-18, sequence (Q14116 37-193): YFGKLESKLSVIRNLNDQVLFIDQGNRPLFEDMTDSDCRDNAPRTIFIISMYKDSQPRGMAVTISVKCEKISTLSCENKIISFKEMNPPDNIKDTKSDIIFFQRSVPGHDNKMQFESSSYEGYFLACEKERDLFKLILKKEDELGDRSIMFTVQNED

As to IL-18 (from UniProt Q14116), in test [1], the Kd – broadly, the concentration at which binding is half-saturated – was below 0.001 µM.

With “decoy-resistant IL-18 variant CS2 (consensus sequence 2), DR-18 (from UniProt P70380 37-192) (ligand)”, the Kd in test [2] was above 10 µM.

(Values after publication PMC7381364.)
